In patent publication US20140113322A1, “SUPRAMOLECULAR NANOBEACON IMAGING AGENTS AS PROTEASE SENSORS” (priority 2012, published 2014):

System: MCF-7 cells

COc1cc(N=Nc2ccc(C)cc2[N+](=O)[O-])c(C)cc1N=Nc1ccc(N(C)CCCC(=O)NCCCC[C@H](NC(=O)CNC(=O)[C@H](CC(C)C)NC(=O)[C@H](Cc2ccccc2)NC(=O)CNC(=O)c2ccc3c(c2)C(=O)OC32c3ccc(O)cc3Oc3cc(O)ccc32)C(=O)NCC(=O)N[C@@H](CCCNC(=N)N)C(=O)N[C@@H](CCCCN)C(=O)N[C@@H](CCCCN)C(=O)N[C@@H](CCCNC(=N)N)C(=O)N[C@@H](CCCNC(=N)N)C(=O)N[C@@H](CCC(N)=O)C(=O)N[C@@H](CCCNC(=N)N)C(=O)N[C@@H](CCCNC(=N)N)C(=O)N[C@@H](CCCNC(=N)N)C(=O)N2CCC[C@H]2C(=O)N2CCC[C@H]2C(=O)N[C@@H](CCC(N)=O)C(N)=O)cc1 [TFB]
toxicity to MCF-7 cells (cell viability): little toxicity
